The results in this text go back to publication doi:10.1101/2022.09.20.508747, “Affinity-matured homotypic interactions induce spectrum of PfCSP-antibody structures that influence protection from malaria infection” (bioRxiv, 2022).

Settings in all cases: both partners purified
Experiment [1] deals with T1, NPNA8 peptide, biotinylated (for BLI) (Plasmodium falciparum).
T1 construct: source: synthetic peptide, InnoPep Inc
T1 chain: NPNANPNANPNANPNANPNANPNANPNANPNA
Briefly: BLI.

In experiment [2] the target is T2, NPNA4 peptide, biotinylated (for BLI) (Plasmodium falciparum).
T2 construct: source: synthetic peptide, InnoPep Inc
T2 chain: NPNANPNANPNANPNA-{Biotin′}
As to the kind of experiment: BLI. On the technique in general: In BLI a coated tip is dipped into the sample, and binding shifts an interference pattern.

The target in experiment [3] is T3, NPNA8 peptide (for cryo-EM) (Plasmodium falciparum).
T3 construct: source: synthetic peptide, InnoPep Inc
T3 chain: T1 chain
Briefly: cryo-EM structure.

Changes are numbered by the printed parent chain. Primed or numbered codes have the meaning given here. No end group written: not given here. Biotin′ = biotin

In general, stoichiometry N refers to the number of molecules, sites or subunits per partner or assembly.

B1: 337 Fab (Fab, V domains shown)
VH: QVQLVESGGGVVQPGRSLRLSCAASGFSFSTYGMHWVRQAPGKGLEWVALIWHDGSKKFYSESVRGRFTISRDNSMDTLYLQMSSLRAEDTAVYYCARDGADYFDSTGGAFDIWGQGTMVIVSS
VL: EIVMTQSPATLSVSPGERATLSCRASQSVSSNLAWYQQKPGQAPRLLIYGASTRATGIPARFSGSGSGTEFTLTISSLQSEDFATYYCQQYKTWWTFGQGTKVEIK
notes: also called mAb 337; source: ExpiCHO cells, purified (mAb Select PrismA or Capture Select, SEC)
Take B1: the binding result in experiment [1] and in experiment [2] was “binds” throughout.

B2: 364 Fab (Fab, V domains shown)
VH: QVQLVESGGGVVQPGGSLRLSCAASGFTFSGYGMHWVRQVPGKGLEWVAIIWFDGSQKYYADSVQGRFTISRDNSKKTLFLRMNSLRAEDTAVYYCAKVHDDEPTQDYWGQGTLVTVSS
VL: DIQMTQSPSTLSASVGDRVTITCRASQGISTSLAWYQQKPGKAPKLLIYKASSLESGVPSRFSGSGSGTEFTLTITSLQPEDFATYYCQQYKRYWTFGQGTKVEIK
notes: also called mAb 364; source: ExpiCHO cells, purified (mAb Select PrismA or Capture Select, SEC)
As for B2, the binding result in experiment [1] and in experiment [2] was “binds” throughout.

B3: 227 Fab (Fab, V domains shown)
VH: QVQLVQSGGGVVQPGRSLRLSCVTSGFTFPAFGMHWVRQAPGKGLEWVAVIWYDGSKKYYADSVRGRFTISRDNSRNTLYLQMHSLRAEDTAVYYCARVKNYESSGYSQCLDYWGQGVLVTVAS
VL: QSVLTQPPSVSGAPGQRVTISCTGSSSNIGAGYDVHWYQQLPGTAPKLLIYGNGNRPSGVPDRFSGSKSGTSVSLAITGLQAEDEADYYCQSYDSSLSAFVFGTGTKVTVL
notes: also called mAb 227; source: ExpiCHO cells, purified (mAb Select PrismA or Capture Select, SEC)
On to B3, for which, in experiment [3], the “stoichiometry N” value is 4 Fabs per NPNA8 peptide. The binding result in experiment [2] is “binds”.

B4: 334 Fab (Fab, V domains shown)
VH: QVQLVESGGGVVQPGRSLTLSCAASGFTFSNYGMHWVRQTPGKGLAWVAIIWYDGSKTYYEDSVKGRFTISRDNSKNTLYLQMNSLRVDDTAVYYCARVRHSSSRHGSAFDLWGQGTLVTVSS
VL: VIQMTQSPSTLSASVGDRVTITCRASQSVSTWLAWYQQKPGQGPKLLIYEASSLESGVPSRFSGSGSGTEFTLTISSLQPDDFATYYCQQYNSYSFWTFGQGTKVEIK
notes: also called mAb 334; source: ExpiCHO cells, purified (mAb Select PrismA or Capture Select, SEC)
On to B4, for which the binding result in experiment [1] and in experiment [2] was “binds” each time.

B5: 311 Fab (Fab, V domains shown)
VH: QVQLVESGGGVVPPGRSLRLSCATSGFTFSNYGMHWVRQAPGKGLEWVAIIWYDGSRNFYAASVEGRFTISRDNSKNTLYLQMNSLRVEDTAVYYCARAAYYDTSGYGDYWGQGTLVTVSS
VL: QSVLTQPPSVSGAPGQTVTISCTGGSSNIGAGYDVHWYQQLPGTAPKLLIYGNINRPSGVPDRFSGSKSGTSASLAITGLQAEDEADYYCQSYDRRLSGSWVFGGGTKLTVL
notes: source: ExpiCHO cells, purified (mAb Select PrismA or Capture Select, SEC)
Turning to B5, the binding result in experiment [1] and in experiment [2] was “binds” throughout.

B6: 311R Fab (Fab, V domains shown)
VH: B5 VH with N31S, R57N, N58K, E65K
VL: B5 VL with R95S, R96S
notes: also called Fab311R; germline-reverted 311; source: ExpiCHO cells, purified (mAb Select PrismA or Capture Select, SEC)
For B6, the binding result in experiment [1] and in experiment [2] was “binds” in each case.

B7: 239 Fab (Fab, V domains shown)
VH: QVQLVESGGGVVQPGRSLRLSCAASRLTFRNFGMHWVRQTPGKGLEWVAVIWHDGSNKFYADSVEGRFTISRDNSKNTLYLQMNSLRDEDTAIYYCAKDWGGASDRVFDYWGRGTLVIVSS
VL: DIQMTQSPSTLSASVGDRVTITCRASQSVSTSLAWYQQKPGKAPNLLIYQASTLYRGVPSRFSGSGSGTEFTLTIGSLQPDDFATYYCQHYNSYSRITFGQGTRLEIK
notes: also called mAb 239; source: ExpiCHO cells, purified (mAb Select PrismA or Capture Select, SEC)
With B7, the binding result in experiment [1] and in experiment [2] was “binds” throughout.

B8: 239R Fab (Fab, V domains shown)
VH: B7 VH with R30S, N31S, F32Y, E65K
VL: B7 VL with R56T
notes: also called germline-reverted 239; source: ExpiCHO cells, purified (mAb Select PrismA or Capture Select, SEC)
For the molecule B8, the binding result in experiment [1] was “binds”. Also, the “fold lower apparent affinity than 239” value in experiment [2] was ~2 fold.

B9: 356 Fab (Fab, V domains shown)
VH: QVQLVESGGGVVQPGRSLRLSCAASGFTFRNFGMHWVRQTPGKGLEWVAVIWHDGSNKFYADSVEGRFTISRDNSKNMIYLQMNSLRVEDTAIYYCARDSLFYDHDNSGYYGYWGQGTLVTVSS
VL: QIVMTQSPATVSVSPGERATLSCRASRSVTSKLAWYQQKPGQAPRLLIYGASTRATGIPARFSGSGSGTEFTLTISSLQSEDFAVYFCQQYNNGFTFGPGTKVDFK
notes: also called mAb 356; source: ExpiCHO cells, purified (mAb Select PrismA or Capture Select, SEC)
In the case of B9, the binding result in experiment [1] and in experiment [2] was “binds” throughout.

B10: 356R Fab (Fab, V domains shown)
VH: B9 VH with R30S, N31S, F32Y, E65K
VL: B9 VL with Q1E, R27Q
notes: also called germline-reverted 356; source: ExpiCHO cells, purified (mAb Select PrismA or Capture Select, SEC)
Turning to B10, the binding result in experiment [1] is “binds”. Besides, the “fold higher apparent affinity than 356” value in experiment [2] was ~2 fold.
